Test results: paper PMC11997214

B1: B7H3 (4IgB7H3, CD276): N91/104/309/322Q (protein)
parent chain: MLRRRGSPGMGVHVGAALGALWFCLTGALEVQVPEDPVVALVGTDATLCCSFSPEPGFSLAQLNLIWQLTDTKQLVHSFAEGQDQGSAYANRTALFPDLLAQGNASLRLQRVRVADEGSFTCFVSIRDFGSAAVSLQVAAPYSKPSMTLEPNKDLRPGDTVTITCSSYQGYPEAEVFWQDGQGVPLTGNVTTSQMANEQGLFDVHSILRVVLGANGTYSCLVRNPVLQQDAHSSVTITPQRSPTGAVEVQVPEDPVVALVGTDATLRCSFSPEPGFSLAQLNLIWQLTDTKQLVHSFTEGRDQGSAYANRTALFPDLLAQGNASLRLQRVRVADEGSFTCFVSIRDFGSAAVSLQVAAPYSKPSMTLEPNKDLRPGDTVTITCSSYRGYPEAEVFWQDGQGVPLTGNVTTSQMANEQGLFDVHSVLRVVLGANGTYSCLVRNPVLQQDAHGSVTITGQPMTFPPEALWVTVGLSVCLIALLVALAFVCWRKIKQSCEEENAGAEDQDGEGEGSKTALQPLKHSDSKEDDGQEIA
B2: B7H3 (4IgB7H3, CD276): 8NQ (protein)
parent chain: B1 parent chain

Test: Flag IP, Ub blots after NMS-873 or CB-5083
Conditions: glycan lost; control: wild type

Protein | other: total and K48-linked ubiquitination
B1 | increases
B2 | increases
